The supplement of paper PMC9112550, “Optimization of the antimicrobial peptide Bac7 by deep mutational scanning” (BMC Biology, 2022)

Tested on: Escherichia coli TOP10
Assay: shrunken log2 fold change of peptide-encoding DNA abundance (4.5 h post-induction vs induction); higher = less antimicrobial activity (less host growth inhibition)
Conditions: time post-induction: 4.5 h; library: site-saturation at positions 5, 18, 19, 20
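Note: peptides expressed intracellularly from a pBAD plasmid library in pooled LB shake-flask culture, induced with 0.3% L-arabinose, DNA abundance read by NGS, three biological replicates, DESeq2 with apeglm shrinkage.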

Row | Sequence | shrunken log2 fold change
1 | RRIRIRPPRLPRPRPRPFKPPRP | -0.395
2 | RRIRKRPPRLPRPRPRPKCGPRP | 0.0305
3 | RRIRCRPPRLPRPRPRPYNSPRP | -0.325
4 | RRIRLRPPRLPRPRPRPSFVPRP | -0.392
5 | RRIRSRPPRLPRPRPRPRNVPRP | 0.0864
6 | RRIRNRPPRLPRPRPRPGVVPRP | 0.176
7 | RRIRERPPRLPRPRPRPYILPRP | -2.27
8 | RRIRGRPPRLPRPRPRPAYNPRP | -0.34
9 | RRIRGRPPRLPRPRPRPLIIPRP | -0.05
10 | RRIRLRPPRLPRPRPRPSMFPRP | -0.498
11 | RRIRIRPPRLPRPRPRPLSIPRP | -0.493
12 | RRIRPRPPRLPRPRPRPGWDPRP | 0.011
13 | RRIRERPPRLPRPRPRPFWFPRP | -0.303
14 | RRIRCRPPRLPRPRPRPYFHPRP | -0.233
15 | RRIRGRPPRLPRPRPRPHYDPRP | -0.0292
16 | RRIRIRPPRLPRPRPRPRYIPRP | -0.242
17 | RRIRRRPPRLPRPRPRPTGGPRP | 0.296
18 | RRIRMRPPRLPRPRPRPMKQPRP | 0.0424
19 | RRIRCRPPRLPRPRPRPHQVPRP | -0.288
20 | RRIRYRPPRLPRPRPRPTFTPRP | -0.566
21 | RRIRGRPPRLPRPRPRPPKDPRP | 0.799
22 | RRIRERPPRLPRPRPRPFHNPRP | -0.413

Row | Sequence | shrunken log2 fold change
23 | RRIRTRPPRLPRPRPRPTGYPRP | 0.000642
24 | RRIRRRPPRLPRPRPRPMDMPRP | 0.0833
25 | RRIRWRPPRLPRPRPRPWSKPRP | -0.191
26 | RRIRHRPPRLPRPRPRPSIGPRP | -0.335
27 | RRIRVRPPRLPRPRPRPPHGPRP | -0.317
28 | RRIRSRPPRLPRPRPRPMIIPRP | -0.182
29 | RRIRWRPPRLPRPRPRPEKLPRP | 0.225
30 | RRIRARPPRLPRPRPRPYVAPRP | -0.35
31 | RRIRNRPPRLPRPRPRPTWEPRP | 0.102
32 | RRIRCRPPRLPRPRPRPVVRPRP | -0.356
33 | RRIRGRPPRLPRPRPRPSCRPRP | 0.417
34 | RRIRIRPPRLPRPRPRPRSMPRP | -0.695
35 | RRIRIRPPRLPRPRPRPNILPRP | -0.557
36 | RRIRYRPPRLPRPRPRPVFAPRP | 0.0473
37 | RRIRQRPPRLPRPRPRPWHPPRP | -0.0543
38 | RRIRTRPPRLPRPRPRPIENPRP | 0.0452
39 | RRIRPRPPRLPRPRPRPWVFPRP | 0.0691
40 | RRIRGRPPRLPRPRPRPGRKPRP | 0.747
41 | RRIRDRPPRLPRPRPRPGATPRP | 1.01
42 | RRIRDRPPRLPRPRPRPCGYPRP | 0.0572
43 | RRIRQRPPRLPRPRPRPFASPRP | -0.35
44 | RRIRKRPPRLPRPRPRPAAAPRP | 0.896

Row | Sequence | shrunken log2 fold change
45 | RRIRSRPPRLPRPRPRPSHDPRP | -0.308
46 | RRIRPRPPRLPRPRPRPWRCPRP | 0.199
47 | RRIRQRPPRLPRPRPRPTGNPRP | -0.0862
48 | RRIRNRPPRLPRPRPRPWWTPRP | -0.129
49 | RRIRVRPPRLPRPRPRPHLGPRP | -0.132
50 | RRIRNRPPRLPRPRPRPTCDPRP | 0.0801
51 | RRIRLRPPRLPRPRPRPLGEPRP | 0.013
52 | RRIRGRPPRLPRPRPRPKAPPRP | 0.855
53 | RRIRERPPRLPRPRPRPEVHPRP | 0.116
54 | RRIRGRPPRLPRPRPRPPRTPRP | 1.33
55 | RRIRWRPPRLPRPRPRPARVPRP | 0.413
56 | RRIRTRPPRLPRPRPRPLYYPRP | -0.771
57 | RRIRARPPRLPRPRPRPYLWPRP | 0.134
58 | RRIRERPPRLPRPRPRPQQDPRP | -0.108
59 | RRIRTRPPRLPRPRPRPTEIPRP | -0.119
60 | RRIRSRPPRLPRPRPRPVMMPRP | -0.0812
61 | RRIRFRPPRLPRPRPRPSRPPRP | 0.616
62 | RRIRDRPPRLPRPRPRPIVAPRP | -0.0201
63 | RRIRTRPPRLPRPRPRPQTKPRP | 0.0553
64 | RRIRRRPPRLPRPRPRPGQWPRP | 0.312
65 | RRIRMRPPRLPRPRPRPGTYPRP | -0.163
66 | RRIRFRPPRLPRPRPRPDYNPRP | -0.422

Row | Sequence | shrunken log2 fold change
67 | RRIRVRPPRLPRPRPRPRKQPRP | 0.383
68 | RRIRPRPPRLPRPRPRPPGRPRP | 0.567
69 | RRIRDRPPRLPRPRPRPHNHPRP | -0.612
70 | RRIRKRPPRLPRPRPRPDAKPRP | 0.165
71 | RRIRNRPPRLPRPRPRPTAFPRP | 0.00576
72 | RRIRMRPPRLPRPRPRPMHSPRP | 0.126
73 | RRIRRRPPRLPRPRPRPCIDPRP | -0.211
74 | RRIRHRPPRLPRPRPRPPKHPRP | 0.2
75 | RRIRTRPPRLPRPRPRPNCSPRP | -0.435
76 | RRIRYRPPRLPRPRPRPMIEPRP | 0.00164
77 | RRIRERPPRLPRPRPRPRSLPRP | -0.0254
78 | RRIRLRPPRLPRPRPRPMRVPRP | 0.115
79 | RRIRYRPPRLPRPRPRPAAWPRP | 0.00758
80 | RRIRMRPPRLPRPRPRPRNEPRP | 0.471
81 | RRIRWRPPRLPRPRPRPYPGPRP | -0.0967
82 | RRIRCRPPRLPRPRPRPFMVPRP | -0.502
83 | RRIRKRPPRLPRPRPRPDVIPRP | 0.153
84 | RRIRHRPPRLPRPRPRPMCEPRP | -0.293
85 | RRIRKRPPRLPRPRPRPALRPRP | 0.455
86 | RRIRMRPPRLPRPRPRPQCEPRP | -0.00192
87 | RRIRQRPPRLPRPRPRPLPIPRP | 0.231
88 | RRIRKRPPRLPRPRPRPIFTPRP | 0.118

Row | Sequence | shrunken log2 fold change
89 | RRIRLRPPRLPRPRPRPIHMPRP | -0.0933
90 | RRIRHRPPRLPRPRPRPVAMPRP | -0.123
91 | RRIRLRPPRLPRPRPRPPSQPRP | 0.756
92 | RRIRGRPPRLPRPRPRPCSMPRP | -0.0323
93 | RRIRWRPPRLPRPRPRPQEYPRP | -0.0612
94 | RRIRPRPPRLPRPRPRPNCIPRP | -0.134
95 | RRIRKRPPRLPRPRPRPQIAPRP | -0.11
96 | RRIRERPPRLPRPRPRPAYYPRP | -0.356
97 | RRIRCRPPRLPRPRPRPECPPRP | 0.293
98 | RRIRERPPRLPRPRPRPQTPPRP | 0.0694
99 | RRIRVRPPRLPRPRPRPPVKPRP | -0.112
100 | RRIRSRPPRLPRPRPRPGMVPRP | 0.23
101 | RRIRRRPPRLPRPRPRPAAGPRP | 0.326
102 | RRIRARPPRLPRPRPRPNGEPRP | 0.189
103 | RRIRIRPPRLPRPRPRPMWGPRP | -0.196
104 | RRIRDRPPRLPRPRPRPHPAPRP | 0.145
105 | RRIRFRPPRLPRPRPRPKAKPRP | -0.016
106 | RRIRGRPPRLPRPRPRPKGLPRP | 0.016
107 | RRIRGRPPRLPRPRPRPEQQPRP | -0.0199
108 | RRIRCRPPRLPRPRPRPRRMPRP | 0.00514
109 | RRIRTRPPRLPRPRPRPIVFPRP | -0.218
